We go through 18 variants from the supplement of paper PMC7125110.

B1: glmS ribozyme (parent)
chain: AUAAAAGCGCCAGAACUACAGAAAUGUAGUUGACGAGGAGGAGGUUUAUCGAAUUUUCGGCGGAUGCCUCCAAA

Details in all cases: with glucosamine-6-phosphate
In data set [1] the parent is B1. As to the kind of experiment: kcat; higher = faster cleavage; RNA array. Summed up:
(§1)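 Sequenced MiSeq chips were the platform: E. coli RNA polymerase transcribed barcoded ribozyme variants on them in situ, and a hybridised Cy3 probe tracked these at 37 °C. After glucosamine-6-phosphate (40 μM to 10 mM) in HEPES/KCl/Mg(OAc)2 buffer was flowed in, tiles were imaged over ~14 h. Signals normalised to baseline and to non-cleaving reference variants were reduced to per-tile medians and fit to one- or two-exponential decays to obtain kobs. kcat and KM were derived through weighted Michaelis–Menten fits across concentrations.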

In data set [2] the parent is B1. Put plainly: self-cleavage kobs at 2500 uM GlcN6P; higher = faster cleavage; RNA array. Summed up:
as §1

In data set [3] the parent is B1. Put plainly: self-cleavage kobs at 10000 uM GlcN6P; higher = faster cleavage; RNA array. An outline of the steps:
as §1

Variants of B1 are the subject of data set [4]. Put plainly: self-cleavage kobs at 160 uM GlcN6P; higher = faster cleavage; RNA array. Summed up: as §1
Variants of B1 are the subject of data set [5]. Put plainly: self-cleavage kobs at 40 uM GlcN6P; higher = faster cleavage; RNA array. Summed up:
as §1

Variants of B1 are the subject of data set [6]. As to the kind of experiment: self-cleavage kobs at 640 uM GlcN6P; higher = faster cleavage; RNA array. An outline of the steps:
as §1

In data set [7] the parent is B1. Put plainly: KM; higher = weaker cofactor use; RNA array. An outline of the steps:
as §1

± gives the standard error. For part of these data: This sample holds only a part of the variants without activity. Some results are limits rather than exact numbers.

With G13C A48G, in the data set with glucosamine-6-phosphate [1], the kcat was less than 1e-05 s⁻¹. Moreover, the “self-cleavage kobs at 2500 uM GlcN6P” value with glucosamine-6-phosphate [2] is less than 1e-05 s⁻¹. In addition, in the data set with glucosamine-6-phosphate [3], the “self-cleavage kobs at 10000 uM GlcN6P” value was less than 1e-05 s⁻¹.

On to C50G U54C, for which, in the data set with glucosamine-6-phosphate [1], the kcat turned out to be 5.48e-05 ± 1.1e-05 s⁻¹. Further, the “self-cleavage kobs at 160 uM GlcN6P” value with glucosamine-6-phosphate [4] was determined as 5.92e-05 ± 2.5e-05 s⁻¹. The “self-cleavage kobs at 2500 uM GlcN6P” value with glucosamine-6-phosphate [2] is 5.87e-05 ± 1.8e-05 s⁻¹.

For the variant A12U G60U G66C C68U, the turnover number (kcat) with glucosamine-6-phosphate [1] is less than 1e-05 s⁻¹. In addition, the “self-cleavage kobs at 10000 uM GlcN6P” value with glucosamine-6-phosphate [3] was less than 1e-05 s⁻¹.

With A15C C61U, the catalytic constant (kcat) with glucosamine-6-phosphate [1] was less than 1e-05 s⁻¹. In addition, the “self-cleavage kobs at 40 uM GlcN6P” value with glucosamine-6-phosphate [5] was less than 1e-05 s⁻¹. Moreover, the “self-cleavage kobs at 160 uM GlcN6P” value with glucosamine-6-phosphate [4] is less than 1e-05 s⁻¹. In addition, in the data set with glucosamine-6-phosphate [6], the “self-cleavage kobs at 640 uM GlcN6P” value was less than 1e-05 s⁻¹.

For the variant A12C C34A, in the data set with glucosamine-6-phosphate [1], the catalytic constant (kcat) is less than 1e-05 s⁻¹. The “self-cleavage kobs at 40 uM GlcN6P” value with glucosamine-6-phosphate [5] was less than 1e-05 s⁻¹. Besides, the “self-cleavage kobs at 160 uM GlcN6P” value in the data set with glucosamine-6-phosphate [4] is less than 1e-05 s⁻¹. Besides, the “self-cleavage kobs at 640 uM GlcN6P” value with glucosamine-6-phosphate [6] was less than 1e-05 s⁻¹. Besides, the “self-cleavage kobs at 2500 uM GlcN6P” value with glucosamine-6-phosphate [2] was less than 1e-05 s⁻¹.

As for C58U C70U, in the data set with glucosamine-6-phosphate [1], the catalytic constant (kcat) was 0.000128 ± 1.9e-05 s⁻¹. For the same variant, in the data set with glucosamine-6-phosphate [7], the Michaelis-Menten constant (KM) is 4650 ± 1400 µM. In addition, in the data set with glucosamine-6-phosphate [2], the “self-cleavage kobs at 2500 uM GlcN6P” value came out at 4.75e-05 ± 5.9e-06 s⁻¹. In the data set with glucosamine-6-phosphate [3], the “self-cleavage kobs at 10000 uM GlcN6P” value is 8.61e-05 ± 8.8e-06 s⁻¹.

Take C11U U65G C68U: the kcat in the data set with glucosamine-6-phosphate [1] stood at 6.35e-05 ± 2.3e-05 s⁻¹. In addition, the “self-cleavage kobs at 2500 uM GlcN6P” value in the data set with glucosamine-6-phosphate [2] turned out to be 0.000106 ± 3.6e-05 s⁻¹. For the same variant, the “self-cleavage kobs at 10000 uM GlcN6P” value with glucosamine-6-phosphate [3] amounted to 5.53e-05 ± 1.2e-05 s⁻¹.

In the case of C50U C71U, in the data set with glucosamine-6-phosphate [1], the turnover number (kcat) was 5.37e-05 ± 8.4e-06 s⁻¹. In addition, in the data set with glucosamine-6-phosphate [2], the “self-cleavage kobs at 2500 uM GlcN6P” value came to 4.54e-05 ± 9.2e-06 s⁻¹. The “self-cleavage kobs at 10000 uM GlcN6P” value with glucosamine-6-phosphate [3] is 4.57e-05 ± 1e-05 s⁻¹.

Take U47C C50U: in the data set with glucosamine-6-phosphate [1], the kcat amounted to 4.46e-05 ± 3.5e-07 s⁻¹. The KM in the data set with glucosamine-6-phosphate [7] came to 1670 ± 52 µM. Further, in the data set with glucosamine-6-phosphate [2], the “self-cleavage kobs at 2500 uM GlcN6P” value was 2.69e-05 ± 1.3e-05 s⁻¹. For the same variant, the “self-cleavage kobs at 10000 uM GlcN6P” value with glucosamine-6-phosphate [3] was found to be 3.82e-05 ± 1.1e-05 s⁻¹.

For the variant G32A C68A, in the data set with glucosamine-6-phosphate [1], the kcat came to 1.56e-05 ± 4.4e-06 s⁻¹.

As for U55A C58A, the catalytic constant (kcat) in the data set with glucosamine-6-phosphate [1] stood at 0.000722 ± 7.6e-05 s⁻¹. Moreover, in the data set with glucosamine-6-phosphate [7], the KM was 4620 ± 800 µM. Further, the “self-cleavage kobs at 640 uM GlcN6P” value with glucosamine-6-phosphate [6] is 9.44e-05 ± 2e-05 s⁻¹. Also, in the data set with glucosamine-6-phosphate [2], the “self-cleavage kobs at 2500 uM GlcN6P” value came to 0.000254 ± 4.5e-05 s⁻¹. The “self-cleavage kobs at 10000 uM GlcN6P” value in the data set with glucosamine-6-phosphate [3] amounted to 0.000491 ± 7.2e-05 s⁻¹.

For C11U U45G U54A, the catalytic constant (kcat) in the data set with glucosamine-6-phosphate [1] is 0.000206 ± 5.6e-05 s⁻¹. Besides, the “self-cleavage kobs at 2500 uM GlcN6P” value with glucosamine-6-phosphate [2] was found to be 0.000119 ± 2.7e-05 s⁻¹. The “self-cleavage kobs at 10000 uM GlcN6P” value with glucosamine-6-phosphate [3] was 0.000152 ± 3.4e-05 s⁻¹.

Turning to U30C C71A, in the data set with glucosamine-6-phosphate [1], the kcat was 9.39e-05 ± 4.7e-06 s⁻¹. For the same variant, the KM with glucosamine-6-phosphate [7] amounted to 1300 ± 180 µM. Also, the “self-cleavage kobs at 640 uM GlcN6P” value with glucosamine-6-phosphate [6] worked out at 3.17e-05 ± 8.4e-06 s⁻¹. The “self-cleavage kobs at 2500 uM GlcN6P” value in the data set with glucosamine-6-phosphate [2] stood at 6.1e-05 ± 9.3e-06 s⁻¹. Further, the “self-cleavage kobs at 10000 uM GlcN6P” value with glucosamine-6-phosphate [3] stood at 8.36e-05 ± 1.3e-05 s⁻¹.

In the case of C11A C71U, the kcat in the data set with glucosamine-6-phosphate [1] stood at 0.000122 ± 1.1e-05 s⁻¹. Further, in the data set with glucosamine-6-phosphate [7], the KM worked out at 451 ± 210 µM. Moreover, in the data set with glucosamine-6-phosphate [6], the “self-cleavage kobs at 640 uM GlcN6P” value is 7.03e-05 ± 1.1e-05 s⁻¹. Also, the “self-cleavage kobs at 2500 uM GlcN6P” value with glucosamine-6-phosphate [2] amounted to 0.000147 ± 2.3e-05 s⁻¹. Further, the “self-cleavage kobs at 10000 uM GlcN6P” value with glucosamine-6-phosphate [3] turned out to be 0.000113 ± 8e-06 s⁻¹.

Consider G29U U30A, for which the kcat with glucosamine-6-phosphate [1] is 0.000337 ± 3.2e-05 s⁻¹. The Michaelis-Menten constant (KM) in the data set with glucosamine-6-phosphate [7] was found to be 1900 ± 380 µM. Further, the “self-cleavage kobs at 640 uM GlcN6P” value with glucosamine-6-phosphate [6] was 8.73e-05 ± 1.5e-05 s⁻¹. In addition, the “self-cleavage kobs at 2500 uM GlcN6P” value with glucosamine-6-phosphate [2] turned out to be 0.000198 ± 3.2e-05 s⁻¹. Also, the “self-cleavage kobs at 10000 uM GlcN6P” value with glucosamine-6-phosphate [3] was 0.000278 ± 4e-05 s⁻¹.

For U46C U69C, in the data set with glucosamine-6-phosphate [1], the turnover number (kcat) was 0.00112 ± 0.0002 s⁻¹. Also, the KM with glucosamine-6-phosphate [7] was 644 ± 250 µM. Also, the “self-cleavage kobs at 40 uM GlcN6P” value in the data set with glucosamine-6-phosphate [5] worked out at 5.23e-05 ± 2.2e-05 s⁻¹. Further, the “self-cleavage kobs at 640 uM GlcN6P” value with glucosamine-6-phosphate [6] is 0.000644 ± 0.00013 s⁻¹. Besides, in the data set with glucosamine-6-phosphate [2], the “self-cleavage kobs at 2500 uM GlcN6P” value worked out at 0.00117 ± 0.00032 s⁻¹. Also, the “self-cleavage kobs at 10000 uM GlcN6P” value with glucosamine-6-phosphate [3] amounted to 0.000936 ± 0.00019 s⁻¹.

Regarding U30G A39U, in the data set with glucosamine-6-phosphate [1], the catalytic constant (kcat) was 0.00794 ± 0.0035 s⁻¹. In addition, the “self-cleavage kobs at 40 uM GlcN6P” value with glucosamine-6-phosphate [5] was determined as 0.000127 ± 2.3e-05 s⁻¹. For the same variant, the “self-cleavage kobs at 160 uM GlcN6P” value with glucosamine-6-phosphate [4] amounted to 0.000455 ± 8.4e-05 s⁻¹. Further, the “self-cleavage kobs at 640 uM GlcN6P” value with glucosamine-6-phosphate [6] came out at 0.000857 ± 0.00016 s⁻¹. For the same variant, the “self-cleavage kobs at 2500 uM GlcN6P” value with glucosamine-6-phosphate [2] came to 0.00224 ± 0.00096 s⁻¹. The “self-cleavage kobs at 10000 uM GlcN6P” value with glucosamine-6-phosphate [3] is 0.00645 ± 0.00095 s⁻¹.

On to U31G A52G, for which the kcat with glucosamine-6-phosphate [1] stood at 0.000431 ± 4.6e-05 s⁻¹. The KM in the data set with glucosamine-6-phosphate [7] was 2820 ± 530 µM. In addition, the “self-cleavage kobs at 640 uM GlcN6P” value with glucosamine-6-phosphate [6] worked out at 8.36e-05 ± 1.2e-05 s⁻¹. Further, the “self-cleavage kobs at 2500 uM GlcN6P” value in the data set with glucosamine-6-phosphate [2] stood at 0.000178 ± 3.1e-05 s⁻¹. In addition, the “self-cleavage kobs at 10000 uM GlcN6P” value with glucosamine-6-phosphate [3] was found to be 0.000352 ± 4.6e-05 s⁻¹.
